Experiment [1] deals with T1, human DR3 (full length, on cells) (human, UniProt Q93038 25-417).
T1 construct: also called hDR3; Death Receptor 3
T1 sequence: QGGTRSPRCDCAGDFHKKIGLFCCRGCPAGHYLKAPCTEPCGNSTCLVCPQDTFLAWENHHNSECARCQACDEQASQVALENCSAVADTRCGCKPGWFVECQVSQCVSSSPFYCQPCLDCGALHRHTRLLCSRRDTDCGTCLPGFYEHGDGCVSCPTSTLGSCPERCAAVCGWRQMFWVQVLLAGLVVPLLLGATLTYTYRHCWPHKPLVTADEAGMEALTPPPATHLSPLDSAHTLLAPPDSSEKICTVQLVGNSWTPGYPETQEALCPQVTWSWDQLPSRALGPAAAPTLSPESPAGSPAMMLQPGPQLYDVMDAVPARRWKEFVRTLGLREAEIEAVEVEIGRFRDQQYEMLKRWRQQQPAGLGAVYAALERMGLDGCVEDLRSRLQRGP
The experiment in a line: flow cytometry on CD3/CD28-stimulated human CD4+ T cells. The procedure:
Human CD4-positive T cells were purified from Buffy coats using CD4 Rosettesep (Stem cell technologies) and Histopaque (Sigma). T cells were stimulated with CD3/CD28 Dynabeads (Invitrogen) at a 1:1 ratio for 4 days in T75 flask at 2 mio CD4 T cells/ml in RPMI supplemented with 10% fcs. Beads were removed using a magnet, and cells were washed twice before titrating in antibodies on 500.000 cells/staining. Binding saturation was measured after incubation with goat-anti-mouse phycoerythrin (Jackson ImmunoResearch) and cells were subsequently analysed by flow cytometry on a BD LSRII. All antibodies reached saturation at 3 μg/ml.
(In general: In flow cytometry, cells or beads pass a laser one at a time.)

The target of experiment [2] is T2, DR3 (CRD1)-Fc (human).
T2 construct: Amino acids 25-71 of DR3 fused to the Fc domain of human IgG4; purified to exclude oligomers (mainly dimeric)
The experiment in a line: SPR, Biacore T100, DR3-Fc fusion immobilised. An excerpt:
(§1) The extracellular moiety of DR3 is located at the aminoterminal portion of DR3 and is comprised of four TNF receptor cysteine-rich domains. Several fusion proteins were expressed and purified which contained parts of the extracellular domain of DR3 of increasing length fused to the Fc domain of a human IgG4. The DR3 proteins used for SPR analysis had been purified to exclude oligomerized material. These proteins were immobilized to a CM5 sensor chip using amine coupling chemistry. Binding of anti-DR3 antibodies termed 0070, 0072, 0073 and 0076, to the different DR3-Fc fusion proteins was tested by means of plasmon surface binding measurements on a Biacore T100 instrument (GE Healthcare). All of these antibodies inhibit binding of TL1A to DR3 in a FACS assay. These 4 antibodies bound to recombinant DR3 (CRD1)-Fc protein that contained only the aminoterminal CRD (SEQ ID NO:2) comprised of amino acids 25-71 of DR3.
(In general: In SPR one partner is held on a chip, and binding of the other changes the refractive index at the surface.)

Experiment [3] deals with T1, human DR3 (full length, on cells). The experiment in a line: flow cytometry on IL-12/IL-18/TL1A activated CD4+ T cells, 1 µg/ml. As for the experimental part: (§2) Buffy Coats were obtained from normal healthy volunteers from Copenhagen University Hospital. CD4+ T cells were isolated through magnetic bead separation. Cells were activated with 2 ng/ml IL-12, 50 ng/ml IL-18 and 100 ng/ml TL1A (Flag-HIS-TEV-TL1A-produced at Novo Nordisk A/S) and cultured for 5 days. On day 5 cells were stained with 10, 5, 1, 0.5, 0.1 or 0.0001 μg/ml of the anti-DR3 mAb clones 0072, 0073, or 0077, or with Fab fragment clones 0087, 0088 and 0091. A secondary PE conjugated goat-anti-mouse (H+L) was used for detection.
The greater observed MFI values of IgG treated compared with Fab treated cells was expected since the secondary (detecting) antibody (anti-IgG heavy and light chain) bound to both Fab and Fc parts of the full-length IgG antibody clones, but only to Fab parts of Fab clones (Table 9).

Experiment [4] shares this target. Kind of experiment: cell-based or functional assay.
Experiment [5] has the same target. The experiment in a line: cell-based or functional assay. This is another data set of the same source.
Experiment [6] shares this target. Kind of experiment: flow cytometry on IL-12/IL-18/TL1A activated CD4+ T cells, 1 µg/ml. The procedure: as §2
as §2, with “Material and Methods: Buffy” for “Buffy”, “Copenhagen” for “Copenhagen University”, “0088 or” for “0088 and”, “detection. Samples were in duplicate. Staining intensity was evaluated by FACS.” for “detection.”
The source holds these as a separate data set.

The target in the next experiment is T3, DR3 (ECD)-Fc (human).
T3 construct: ECD of DR3, a linker with a TEV cleavage site and the Fc part of human IgG4; dimeric fraction used; also called DR3-Fc; hDR3-Fc
Kind of experiment: HX-MS with hDR3 ECD-Fc. As for the experimental part: The Leap robot was equipped with two temperature controlled stacks maintained at 20° C. for buffer storage and HX reactions and maintained at 2° C. for storage of protein and quench solution, respectively. The Waters HDX system furthermore contained a temperature controlled chamber holding the pre- and analytical columns, and the LC tubing and switching valves at 1° C. A separately temperature controlled chamber holds the pepsin column at 25° C. […] The resulting peptides were trapped and desalted on a VanGuard pre-column BEH C18 1.7 μm (2.1×5 mm (Waters Inc.)). Subsequently, the valves were switched to place the pre-column inline with the analytical column, UPLC-BEH C18 1.7 μm (1×100 mm (Waters Inc.)), and the peptides separated using a 9 min gradient of 10-40% B delivered at 200 μl/min from the nanoAQUITY UPLC system (Waters Inc.). The mobile phases consisted of A: 0.1% formic acid and B: 0.1% formic acid in CH₃CN. The ESI MS data, and the separate elevated energy (MS^E) experiments were acquired in positive ion mode using a Synapt G2 mass spectrometer (Waters Inc.).
All HX reactions were carried out at 20° C. and contained […] hDR3 in the absence or presence of […] Fab thus giving a 5 fold molar excess of Fab. […]

The target of experiment [7] is T2, DR3 (CRD1)-Fc. The experiment in a line: SPR.
Text: as §1
The same analysis was also performed for some of the Fab fragments.

Experiment [8] concerns the target T4, human DR3 with the death domain deleted (ΔM339-P417 of SEQ ID NO:1), expressed on CHOK1SV cells (human, UniProt Q93038 25-338).
T4 construct: also called truncated DR3; hDR3 expressing CHO cells
T4 sequence: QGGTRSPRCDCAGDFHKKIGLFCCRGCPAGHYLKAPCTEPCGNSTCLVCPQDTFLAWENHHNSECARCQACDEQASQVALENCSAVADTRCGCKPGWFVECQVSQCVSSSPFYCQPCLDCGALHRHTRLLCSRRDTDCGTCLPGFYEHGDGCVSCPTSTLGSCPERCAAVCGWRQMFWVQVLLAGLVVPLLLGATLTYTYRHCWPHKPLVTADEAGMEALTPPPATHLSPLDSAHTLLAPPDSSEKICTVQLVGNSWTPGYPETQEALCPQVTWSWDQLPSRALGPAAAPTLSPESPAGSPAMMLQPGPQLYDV
Kind of experiment: flow cytometry competition: Fab vs TL1A on hDR3-expressing CHO cells.

Experiment [9] concerns the target T1, human DR3 (full length, on cells). Kind of experiment: cell-based or functional assay. The source holds these as a separate data set.
Experiment [10] shares this target. Kind of experiment: cell-based or functional assay. This is another data set of the same source.

A word on the IC50: it is the concentration that inhibits the measured activity by half. A low value points to higher potency.

Read-outs that look alike come from different tables or passages of the source.

B1: 0070 (murine mAb purified from hybridoma 27F16A1) (antibody, V domains shown)
VH: EVQLVESGGDFVKPGGSLKLSCAASGFTFNNYGMSWVRQTPDKRLEWVAAISSGVTYTYYPDTVKGRFTISRDNAKNTLYLHMSSLKSEDTAMYYCGRHDDYGNHFDYWGQGTTLTVSS
VL: DIVMTQSPSSLAMSLGQRVTMNCKSSQSLLNSHNQKNYLAWYQQKPGQSPKLLVYFASSRESGVPDRFIGSGSGTDFTLTISSVQAEDLADYFCQQHYSTPFTFGSGTKLEIKR
notes: murine IgG1, kappa; also called 0083
For the molecule B1, in [1], the “Median Fluorescent Intensity” value was found to be 2330, the “Staining index (MFI Ab/MFI Isotype)” value was found to be 10.5 and the saturation concentration stood at 3 µg/mL. In the experiment with DR3 (CRD1)-Fc [2], the binding result is listed as “binds”.

B2: 0072 (murine mAb purified from hybridoma 27F44A2) (antibody, mouse IgG1, V domains shown)
VH: EVKLVESGGGLVKPGGSLKLSCSASGFAFSNYDMSWVRQTPEKRLEWVAAFSSDGYTFYPDSLKGRFTISRDNARNTLYLQMSSLGSEDTALYCCARHADYANYPVMDYWGQGTSVTVSS
VL: DIVLAQSPASLLVSLGQRATISCRASKSVSTSGYSYMHWYQQKPGQPPKLLIYLASNLESGVPARFSGSGSGTDFTLNIHPVEEEDAATYYCQHSRELPLTFGAGTMLELKR
notes: murine IgG1, kappa; also called 0084
B2 yielded an MFI in [3] of 1300 MFI. Also, in experiment [1], the “Median Fluorescent Intensity” value was determined as 2650, the “Staining index (MFI Ab/MFI Isotype)” value is 11.9 and the saturation concentration stood at 3 µg/mL. In [4], the “fold response, DR3 reporter, 40 ng/ml TL1A + 0.1 microg/ml” value turned out to be 29.6 fold; the “fold response, DR3 reporter, 40 ng/ml TL1A + 1 microg/ml” value was 24.8 fold; the “fold response, DR3 reporter, 40 ng/ml TL1A + 10 microg/ml” value was 23.3 fold; the “fold response, DR3 reporter, 40 ng/ml TL1A + 100 microg/ml” value stood at 13.6 fold. In experiment [4], the “fold response, DR3 reporter, no TL1A, 0.1 microg/ml” value came out at 20.6 fold; the “fold response, DR3 reporter, no TL1A, 1 microg/ml” value is 19.8 fold; the “fold response, DR3 reporter, no TL1A, 10 microg/ml” value is 17.3 fold; the “fold response, DR3 reporter, no TL1A, 100 microg/ml” value was 8.5 fold. For the same molecule, in the experiment with DR3 (CRD1)-Fc [2], the binding result is listed as “binds”. In [5], the “fold response, DR3 reporter, 40 ng/ml TL1A + 0.000256 microg/ml” value amounted to 33.8 fold; the “fold response, DR3 reporter, 40 ng/ml TL1A + 0.00128 microg/ml” value was 37.2 fold; the “fold response, DR3 reporter, 40 ng/ml TL1A + 0.0064 microg/ml” value came out at 40.3 fold; the “fold response, DR3 reporter, 40 ng/ml TL1A + 0.032 microg/ml” value came to 41 fold. For the same molecule, in experiment [5], the “fold response, DR3 reporter, 40 ng/ml TL1A + 0.08 microg/ml” value came to 38.4 fold; the “fold response, DR3 reporter, 40 ng/ml TL1A + 4 microg/ml” value was 34 fold; the “fold response, DR3 reporter, 40 ng/ml TL1A + 20 microg/ml” value was 27.8 fold; the “fold response, DR3 reporter, 40 ng/ml TL1A + 100 microg/ml” value was 18.4 fold. Also, in experiment [5], the “fold response, DR3 reporter, no TL1A, 0.000256 microg/ml” value is 1.1 fold; the “fold response, DR3 reporter, no TL1A, 0.00128 microg/ml” value turned out to be 2.2 fold; the “fold response, DR3 reporter, no TL1A, 0.0064 microg/ml” value stood at 9.3 fold; the “fold response, DR3 reporter, no TL1A, 0.032 microg/ml” value worked out at 18.6 fold. For the same molecule, in experiment [5], the “fold response, DR3 reporter, no TL1A, 0.08 microg/ml” value was 25.1 fold; the “fold response, DR3 reporter, no TL1A, 4 microg/ml” value came to 21.1 fold; the “fold response, DR3 reporter, no TL1A, 20 microg/ml” value came out at 16.3 fold; the “fold response, DR3 reporter, no TL1A, 100 microg/ml” value was found to be 9.2 fold. In [6], this molecule returned an MFI of 1300 MFI.

B3: 0163 (chimeric Fab of 45F187, human IgG4 constant domain, hinge Cys->Ser) (Fab, V domains shown)
VH: EVQLVESGGGLVQPGGSLRLSCATSGFTFTNYYMAWVRKPPGKTLEWLGFMRNIVNGYTTDYSGSVEGRFTISRDNSQSILYLQMNALRPEDSATYYCARDIGYRYDGGGYGLDYWGQGTSVTVSS
VL: DIQMTQSPASLSASVGETVTLTCRASGNIHNYLTWYQQKQGKSPQLLVYNVKTLADGVSSRFSGSGSGTQFSLKINSLQPEDFGSYYCQHFWTTPYTFGGGTKLEIRR
notes: IgG4-Ser, chimeric; also called 0150
As to B3, the binding result with DR3 (ECD)-Fc is listed as “binds”.

B4: 0152 (chimeric Fab of 50F191, human IgG4 constant domain, hinge Cys->Ser) (Fab, V domains shown)
VH: EVQLVESGGGLVEPGGSLKLSCAASGFTFSTYAMSWVRQSPEKRLEWVAEISSGDSYTYYPDIVTGRFTISRDDAKNTLFLEMSSLRSEDTAIYYCVRDQDYRYDGYYAMDHWGQGTSVTVSS
VL: DIVLTQSPASLAVSLGQRATISCRASESVEHYGTSLMQWYQQKPGQPPKLLIYAASNVESGVPARFSGRGSGPDFSLNIHPVEEDDIAMYFCQQSRRIPWTFGGGTKLEIKR
notes: IgG4-Ser, chimeric
For B4, the binding result with DR3 (CRD1)-Fc [7] is recorded as “binds”. Further, in experiment [8], the IC50 worked out at 512 pM and the max percentage inhibition came out at 53%. In addition, in experiment [9], it took 2100 pM to reach half-maximal inhibition (IC50 at 40 ng/ml TL1A, I5 reporter cells). For the same molecule, in experiment [10], the “IC50, TNFalpha inhibition, TL1A-activated CD4+ T cells, donor 1” value stood at 183 pM; the “IC50, TNFalpha inhibition, average (n 1)” value came to 183 pM; the “max % inhibition of TNFalpha, donor 1” value is 73.5%.
